For orientation: IC50 means the concentration that gives 50% inhibition. A lower IC50 goes with inhibition by little substance.

The experiment has as its target T1, human VEGFR-2 expressed on porcine aortic endothelial cells (PAE/VEGFR-2) (human, UniProt P35968 20-1356).
T1 construct: whole, on cells; also called KDR; PAE/KDR cells
Kind of experiment: competitive bioluminescence ELISA on PAE/VEGFR-2 cells; cold VEGF 121 varied against RL8-VEGF. The method, then:
FIG. 10A illustrates coomassie Blue staining of purified fusion proteins and control proteins. […] FIG. 10B illustrates a Western Blot of purified proteins. […] FIG. 10C illustrates competitive bioluminescence ELISA on PAE/VEGFR-2 overexpressing cells.
Cells were washed and incubated with 0.5 μg of coelenterazine substrate and immediately imaged in the Xenogen IVIS 100 optical cooled charge-coupled device (CCD) (Xenogen, Alameda, Calif.). Regions of interest (ROIs) were drawn over the cell area and quantified in average photons/second/centimeter²/steradian (photons/s/cm²/sr) by using […] version 2.50 (Xenogen, Alameda, Calif.).

T1 sequence (P35968 20-1356): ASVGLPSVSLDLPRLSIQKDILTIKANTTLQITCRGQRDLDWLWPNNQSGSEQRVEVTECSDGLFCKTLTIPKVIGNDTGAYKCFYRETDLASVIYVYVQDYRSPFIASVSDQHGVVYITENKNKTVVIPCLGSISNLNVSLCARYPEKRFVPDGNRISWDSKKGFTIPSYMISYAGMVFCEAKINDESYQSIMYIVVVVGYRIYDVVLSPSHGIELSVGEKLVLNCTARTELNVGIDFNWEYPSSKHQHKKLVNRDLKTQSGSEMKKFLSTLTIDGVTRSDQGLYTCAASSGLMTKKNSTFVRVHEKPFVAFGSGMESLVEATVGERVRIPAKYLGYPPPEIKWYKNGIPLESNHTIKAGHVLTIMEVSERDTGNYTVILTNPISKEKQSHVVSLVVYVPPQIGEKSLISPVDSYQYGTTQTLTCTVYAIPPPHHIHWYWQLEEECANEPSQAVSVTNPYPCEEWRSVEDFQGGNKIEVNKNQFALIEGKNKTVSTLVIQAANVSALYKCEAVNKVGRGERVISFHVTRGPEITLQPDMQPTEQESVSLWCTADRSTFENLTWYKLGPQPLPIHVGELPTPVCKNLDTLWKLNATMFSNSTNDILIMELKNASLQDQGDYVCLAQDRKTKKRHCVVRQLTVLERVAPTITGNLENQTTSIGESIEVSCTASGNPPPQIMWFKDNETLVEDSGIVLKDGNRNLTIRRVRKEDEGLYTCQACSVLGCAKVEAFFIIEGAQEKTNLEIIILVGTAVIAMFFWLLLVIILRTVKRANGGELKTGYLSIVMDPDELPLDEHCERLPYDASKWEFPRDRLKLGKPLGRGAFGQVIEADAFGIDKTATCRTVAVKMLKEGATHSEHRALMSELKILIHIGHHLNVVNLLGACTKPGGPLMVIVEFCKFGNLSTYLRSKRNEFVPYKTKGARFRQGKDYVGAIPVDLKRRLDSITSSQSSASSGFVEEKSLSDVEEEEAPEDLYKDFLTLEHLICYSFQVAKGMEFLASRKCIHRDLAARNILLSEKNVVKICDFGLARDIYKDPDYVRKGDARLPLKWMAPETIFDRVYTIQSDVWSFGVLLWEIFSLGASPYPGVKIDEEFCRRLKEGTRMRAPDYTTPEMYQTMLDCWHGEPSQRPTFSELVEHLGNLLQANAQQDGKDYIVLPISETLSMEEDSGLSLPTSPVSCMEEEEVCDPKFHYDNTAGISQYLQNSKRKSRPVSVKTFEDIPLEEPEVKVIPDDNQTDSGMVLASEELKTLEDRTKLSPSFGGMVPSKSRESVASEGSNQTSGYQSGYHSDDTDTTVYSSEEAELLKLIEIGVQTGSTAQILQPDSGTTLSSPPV

B1: recombinant human VEGF 121 (PeproTech) (ligand, UniProt P15692-9 27-147, looked up)
chain: APMAEGGGQNHHEVVKFMDVYQRSYCHPIETLVDIFQEYPDEIEYIFKPSCVPLMRCGGCCNDEGLECVPTEESNITMQIMRIKPHQGQHIGEMSFLQHNKCECRPKKDRARQEKCDKPRR
Molecule B1 had an IC50 of 0.045 µg/mL.

Source of the values: patent US20090136998A1 (Stanford University, published 2009).
